Measurements reported in patent publication US20140212423A1 (AbbVie / Abbott, published 2014).

Key:
[1] = target: T1, mouse Transferrin Receptor overexpressed on Hek 293 cells (mouse, UniProt Q62351 1-763); test: cell-based MSD-ECL binding on Hek293 cells overexpressing mouse TfR
T1 construct: whole, on cells; also called Hek293/mTfR; 293/mTFR
Protocol: (§1) Meso-scale Discovery (MSD) Electrochemiluminescesnce (ECL) assays to screen for antibodies or DVDs that bind a desired target antigen expressed on the cell surface were performed as follows: Hek 293 cells overexpressing mouse Transferin Receptor were added onto MSD 96-well plates (MSD Cat# L11 XB-3, lot#2290-EA) which were blocked using blocking buffer (30% FBS Serum (Hyclone) in PBS) at 37° C. for 1 hr. After incubating at RT for 30 min with mild agitation, plates were washed with DPBS 3 times and Abs/DVDs (10,000 ng/ml) were added. After incubating for 1 hr at RT, plates were washed 3 times with DPBS and 25 ul of Goat anti human Sulfo TAG (MSD Cat# R32AC-, Lot# W001162) at 1 μg/ml is added. Following a 1 h incubation at RT for 1 hr, plates are washed and MSD read buffer is added before reading on MSD SECTOR Imager 6000. EC50 values are obtained using Xlfit4 software package

[2] = target: T1, mouse Transferrin Receptor …; test: MSD-ECL assay, column headed IC50 (values match the cell-based mTfR binding EC50 of Table 7)
[3] = target: T1, mouse Transferrin Receptor …; test: mTFR binding cell-based assay
Protocol: as §1

[4] = target: T1, mouse Transferrin Receptor …; test: TfR binding EC50 column of Table 8 (cell-based assay; repeats Table 7)
Protocol: as §1

rmTfR (119-763) = target: T2, rmTfR (119-763) (mouse, UniProt Q62351 119-763); test: Biacore SPR, antibody captured via anti-human Fc, rmTfR (119-763) in solution
T2 construct: range 119-763; also called recombinant mouse transferrin receptor 119-763
Protocol: The BIACORE assay (Biacore, Inc, Piscataway, N.J.) was used to determine the affinity of antibodies or DVD-Ig™ with kinetic measurements of on-rate and off-rate constants. Binding of antibodies or DVD-Ig™ to a target antigen (for example, a purified recombinant target antigen) was determined by surface plasmon resonance-based measurements with a Biacore® 1000 or 3000 instrument (Biacore® AB, Uppsala, Sweden) using running HBS-EP (10 mM HEPES [pH 7.4], 150 mM NaCl, 3 mM EDTA, and 0.005% surfactant P20) at 25° C. All chemicals were obtained from Biacore® AB (Uppsala, Sweden) or otherwise from a different source as described in the text. For example, approximately 5000 RU of goat anti-human IgG, (Fcγ), fragment specific polyclonal antibody (Pierce Biotechnology Inc, Rockford, Ill.) diluted in 10 mM sodium acetate (pH 4.5) was directly immobilized across a CM5 research grade biosensor chip using a standard amine coupling kit according to manufacturer's instructions and procedures at 25 μg/ml. Unreacted moieties on the biosensor surface are blocked with ethanolamine. Modified carboxymethyl dextran surface in flowcell 2 and 4 is used as a reaction surface. Unmodified carboxymethyl dextran without goat anti-human IgG in flow cell 1 and 3 is used as the reference surface. For kinetic analysis, rate equations derived from the 1:1 Langmuir binding model were fitted simultaneously to association and dissociation phases of all eight injections (using global fit analysis) with the use of Biaevaluation 4.0.1 software. Purified antibodies or DVD-Ig™ were diluted in HEPES-buffered saline for capture across goat anti-human IgG specific reaction surfaces. […] The association and dissociation rate constants, kon (M⁻¹s⁻¹) and koff (s⁻¹) are determined under a continuous flow rate of 25 μl/min. […] The equilibrium dissociation constant (M) of the reaction between antibodies or DVD-Ig™s and the target antigen is then calculated from the kinetic rate constants by the following formula: KD=koff/kon. Binding is recorded as a function of time and kinetic rate constants are calculated.

rmTfR (123-763) = target: T3, rmTfR (123-763) (mouse, UniProt Q62351 123-763); test: Biacore SPR, antibody captured via anti-human Fc, rmTfR (123-763) in solution
T3 construct: range 123-763; also called recombinant mouse transferrin receptor 123-763
Protocol: The BIACORE assay (Biacore, Inc, Piscataway, N.J.) was used to determine the affinity of antibodies or DVD-Ig™ with kinetic measurements of on-rate and off-rate constants. Binding of antibodies or DVD-Ig™ to a target antigen (for example, a purified recombinant target antigen) was determined by surface plasmon resonance-based measurements with a Biacore® 1000 or 3000 instrument (Biacore® AB, Uppsala, Sweden) using running HBS-EP (10 mM HEPES [pH 7.4], 150 mM NaCl, 3 mM EDTA, and 0.005% surfactant P20) at 25° C. All chemicals were obtained from Biacore® AB (Uppsala, Sweden) or otherwise from a different source as described in the text. For example, approximately 5000 RU of goat anti-human IgG, (Fcγ), fragment specific polyclonal antibody (Pierce Biotechnology Inc, Rockford, Ill.) diluted in 10 mM sodium acetate (pH 4.5) was directly immobilized across a CM5 research grade biosensor chip using a standard amine coupling kit according to manufacturer's instructions and procedures at 25 μg/ml. Unreacted moieties on the biosensor surface are blocked with ethanolamine. Modified carboxymethyl dextran surface in flowcell 2 and 4 is used as a reaction surface. Unmodified carboxymethyl dextran without goat anti-human IgG in flow cell 1 and 3 is used as the reference surface. For kinetic analysis, rate equations derived from the 1:1 Langmuir binding model were fitted simultaneously to association and dissociation phases of all eight injections (using global fit analysis) with the use of Biaevaluation 4.0.1 software. Purified antibodies or DVD-Ig™ were diluted in HEPES-buffered saline for capture across goat anti-human IgG specific reaction surfaces. Antibodies or DVD-Ig™ to be captured as a ligand (25 μg/ml) were injected over reaction matrices at a flow rate of 5 μl/min. The association and dissociation rate constants, kon (M⁻¹s⁻¹) and koff (s⁻¹) are determined under a continuous flow rate of 25 μl/min. Rate constants are derived by making kinetic binding measurements at different antigen concentrations ranging from 10-200 nM. The equilibrium dissociation constant (M) of the reaction between antibodies or DVD-Ig™s and the target antigen is then calculated from the kinetic rate constants by the following formula: KD=koff/kon. Binding is recorded as a function of time and kinetic rate constants are calculated.

T2 sequence (Q62351 119-763): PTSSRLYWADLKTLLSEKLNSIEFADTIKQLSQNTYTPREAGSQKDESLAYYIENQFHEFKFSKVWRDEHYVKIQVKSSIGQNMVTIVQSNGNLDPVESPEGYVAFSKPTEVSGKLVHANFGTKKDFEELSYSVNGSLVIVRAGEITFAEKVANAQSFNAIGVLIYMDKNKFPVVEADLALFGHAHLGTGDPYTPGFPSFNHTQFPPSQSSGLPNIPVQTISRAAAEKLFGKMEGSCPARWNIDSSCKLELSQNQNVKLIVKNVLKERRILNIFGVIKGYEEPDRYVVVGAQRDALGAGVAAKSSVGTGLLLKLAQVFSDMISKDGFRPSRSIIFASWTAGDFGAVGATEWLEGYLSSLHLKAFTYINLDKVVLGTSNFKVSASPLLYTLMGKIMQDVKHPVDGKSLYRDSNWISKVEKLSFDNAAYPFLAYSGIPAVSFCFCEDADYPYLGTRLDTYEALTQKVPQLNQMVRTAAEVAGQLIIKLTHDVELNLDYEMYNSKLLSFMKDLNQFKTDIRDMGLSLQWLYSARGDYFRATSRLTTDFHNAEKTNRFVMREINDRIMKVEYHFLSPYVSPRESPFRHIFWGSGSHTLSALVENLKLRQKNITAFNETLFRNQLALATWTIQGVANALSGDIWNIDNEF
T1 sequence (Q62351 whole entry): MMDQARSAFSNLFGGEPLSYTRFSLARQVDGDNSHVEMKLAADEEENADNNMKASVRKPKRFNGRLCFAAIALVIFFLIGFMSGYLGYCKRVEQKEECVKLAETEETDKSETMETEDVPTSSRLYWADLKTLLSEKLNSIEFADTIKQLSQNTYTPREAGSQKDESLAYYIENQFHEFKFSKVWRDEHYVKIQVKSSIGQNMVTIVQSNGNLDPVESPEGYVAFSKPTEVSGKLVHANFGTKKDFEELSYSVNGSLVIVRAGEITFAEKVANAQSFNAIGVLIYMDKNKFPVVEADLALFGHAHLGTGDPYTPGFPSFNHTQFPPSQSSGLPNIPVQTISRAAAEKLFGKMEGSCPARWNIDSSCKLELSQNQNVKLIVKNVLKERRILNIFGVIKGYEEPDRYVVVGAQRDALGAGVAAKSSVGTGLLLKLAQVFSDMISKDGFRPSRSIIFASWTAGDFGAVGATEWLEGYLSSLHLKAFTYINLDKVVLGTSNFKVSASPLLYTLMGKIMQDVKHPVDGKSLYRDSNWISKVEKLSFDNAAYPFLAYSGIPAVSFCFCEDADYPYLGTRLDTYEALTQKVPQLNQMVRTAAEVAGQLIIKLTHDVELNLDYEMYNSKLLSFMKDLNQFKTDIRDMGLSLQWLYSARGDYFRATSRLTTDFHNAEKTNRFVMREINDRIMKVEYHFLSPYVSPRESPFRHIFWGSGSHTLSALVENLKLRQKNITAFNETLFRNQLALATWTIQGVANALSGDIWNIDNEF
T3 sequence (Q62351 123-763): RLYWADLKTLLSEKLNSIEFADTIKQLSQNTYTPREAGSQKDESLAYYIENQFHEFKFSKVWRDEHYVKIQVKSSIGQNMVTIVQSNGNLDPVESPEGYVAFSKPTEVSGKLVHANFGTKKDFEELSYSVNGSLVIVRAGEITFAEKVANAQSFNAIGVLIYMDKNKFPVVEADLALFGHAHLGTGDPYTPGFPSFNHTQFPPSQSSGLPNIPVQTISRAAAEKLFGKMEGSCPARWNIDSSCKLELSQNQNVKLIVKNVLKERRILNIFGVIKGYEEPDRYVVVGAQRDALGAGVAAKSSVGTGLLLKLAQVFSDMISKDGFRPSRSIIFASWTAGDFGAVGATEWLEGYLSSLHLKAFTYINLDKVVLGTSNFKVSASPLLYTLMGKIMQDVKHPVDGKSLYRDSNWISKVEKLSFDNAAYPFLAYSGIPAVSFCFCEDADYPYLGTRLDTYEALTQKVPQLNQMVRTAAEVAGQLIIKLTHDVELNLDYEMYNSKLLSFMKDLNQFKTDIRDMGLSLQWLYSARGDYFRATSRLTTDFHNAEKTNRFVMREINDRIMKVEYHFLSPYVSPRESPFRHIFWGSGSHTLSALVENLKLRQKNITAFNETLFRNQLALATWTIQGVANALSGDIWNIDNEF

Binder	EC50 [1]	IC50 [2]	EC50 [3]	EC50 [4]	Kd (rmTfR (119-763))	koff (rmTfR (119-763))	kon (rmTfR (119-763))	Kd (rmTfR (123-763))	koff (rmTfR (123-763))	kon (rmTfR (123-763))	binding result (rmTfR (123-763))
DVD2668 (bispecific antibody, DVD-Ig, outer AB221 (TfR), inner AB043 (APP/Abeta), HG-long/LK-short; dual variable regions only; constant regions not assigned; also called TfRLSAbeta DVD2668) VH: EVQLVESGGGLVQPGNSLTLSCVASGFTFSNYGMHWIRQAPKKGLEWIAMIYYDSSKMNYADTVKGRFTISRDNSKNTLYLEMNSLRSEDTAMYYCAVPTSHYVVDVWGQGVSVTVSSASTKGPSVFPLAPEVQLLESGGGLVQPGGSLRLSCAASGFTFSNYGMSWVRQAPGKGLEWVASIRSGGGRTYYSDNVKGRFTISRDNSKNTLYLQMNSLRAEDTAVYYCVRYDHYSGSSDYWGQGTLVTVSS VL: DIQMTQSPASLSASLEEIVTITCQASQDIGNWLAWYQQKPGKSPQLLIYGATSLADGVPSRFSGSRSGTQFSLKISRVQVEDIGIYYCLQAYNTPWTFGGGTKLELKRTVAAPDVVMTQSPLSLPVTPGEPASISCKSSQSLLDSDGKTYLNWLLQKPGQSPQRLIYLVSKLDSGVPDRFSGSGSGTDFTLKISRVEAEDVGVYYCWQGTHFPRTFGQGTKVEIKR	0.1 nM	0.1 nM									
AB221 (antibody, V domains shown, the assays detect/capture with anti-human IgG reagents; constant regions not assigned; also called TfR(AB221); anti-mouse TfR(AB221) antibody) VH: EVQLVESGGGLVQPGNSLTLSCVASGFTFSNYGMHWIRQAPKKGLEWIAMIYYDSSKMNYADTVKGRFTISRDNSKNTLYLEMNSLRSEDTAMYYCAVPTSHYVVDVWGQGVSVTVSS VL: DIQMTQSPASLSASLEEIVTITCQASQDIGNWLAWYQQKPGKSPQLLIYGATSLADGVPSRFSGSRSGTQFSLKISRVQVEDIGIYYCLQAYNTPWTFGGGTKLELKR	0.1 nM		0.12 nM	0.1 nM	5 nM	0.000181 s⁻¹	39400 M⁻¹ s⁻¹				
AB403 (antibody, V domains shown, humanized variant of AB221; constant regions not assigned; also called TfR(AB403)) VH: EVQLVESGGGLVQPGGSLRLSCAASGFTFSNYGMHWIRQAPGKGLEWIAMIYYDSSKMNYADTVKGRFTISRDNAKNSLYLQMNSLRAEDTAVYYCAVPTSHYVVDVWGQGTTVTVSS VL: EIVMTQSPATLSVSPGERATLSCQASQDIGNWLAWYQQKPGQSPRLLIYGATSLADGVPARFSGSRSGTEFTLTISSLQSEDFAVYYCLQAYNTPWTFGGGTKVEIKR	0.09 nM		0.09 nM					3.8 nM	8.39e-05 s⁻¹	22000 M⁻¹ s⁻¹	
AB405 (antibody, V domains shown, constant regions not assigned; also called TfR(AB405)) VH: QVQLVQSGAEVKKPGASVKVSCKASGFTFSNYGMHWIRQAPGQGLEWIAMIYYDSSKMNYADTVKGRFTITRDNSTNTLYMELSSLRSEDTAVYYCAVPTSHYVVDVWGQGTTVTVSS VL: EIVMTQSPATLSVSPGERATLSCQASQDIGNWLAWYQQKPGQSPRLLIYGATSLADGVPARFSGSRSGTEFTLTISSLQSEDFAVYYCLQAYNTPWTFGGGTKVEIKR	13.6 nM		13.6 nM	13.6 nM							no binding (tested: antigen 10-200 nM)
AB402 (antibody, V domains shown, humanized variant of AB221; also called TfR(AB402)) VH: EVQLVESGGGLVQPGGSLRLSCAASGFTFSNYGMHWIRQAPGKGLEWIAMIYYDSSKMNYADTVKGRFTISRDNAKNSLYLQMNSLRAEDTAVYYCAVPTSHYVVDVWGQGTTVTVSS VL: AIQMTQSPSSLSASVGDRVTITCQASQDIGNWLAWYQQKPGKSPKLLIYGATSLADGVPSRFSGSRSGTDFTLTISSLQPEDFATYYCLQAYNTPWTFGGGTKVEIKR	0.06 nM		0.06 nM					3.7 nM	6.12e-05 s⁻¹	16400 M⁻¹ s⁻¹	
DVD2671 (bispecific antibody, DVD-Ig; also called AbetaLSTfR DVD2671) VH: EVQLLESGGGLVQPGGSLRLSCAASGFTFSNYGMSWVRQAPGKGLEWVASIRSGGGRTYYSDNVKGRFTISRDNSKNTLYLQMNSLRAEDTAVYYCVRYDHYSGSSDYWGQGTLVTVSSASTKGPSVFPLAPEVQLVESGGGLVQPGNSLTLSCVASGFTFSNYGMHWIRQAPKKGLEWIAMIYYDSSKMNYADTVKGRFTISRDNSKNTLYLEMNSLRSEDTAMYYCAVPTSHYVVDVWGQGVSVTVSS VL: DVVMTQSPLSLPVTPGEPASISCKSSQSLLDSDGKTYLNWLLQKPGQSPQRLIYLVSKLDSGVPDRFSGSGSGTDFTLKISRVEAEDVGVYYCWQGTHFPRTFGQGTKVEIKRTVAAPDIQMTQSPASLSASLEEIVTITCQASQDIGNWLAWYQQKPGKSPQLLIYGATSLADGVPSRFSGSRSGTQFSLKISRVQVEDIGIYYCLQAYNTPWTFGGGTKLELK	1.2 nM	1.2 nM									
